This data set deals with the molecule itself. In words: SEC-MALS under native conditions in PBS; self-association (non-covalent dimer).

B1: mouse IL-2-10/CD25 (mIL2-linker-CD25-linker-IL10) (other)
chain: APTSSPTSSPTSSSTAEAQQQQQQQQHLEQLLMDLQELLSRMENYRNLKLPRMLTFKFYLPKQATELKDLQCLEDELGPLRHVLDLTQSKSFQLEDAENFISNIRVTVVKLKGSDNTFECQFDDESATVVDFLRRWIAFCQSIISTSPQGGGSGGGSGGGSELCLYDPPEVPNATFKALSYKNGTILNCECKRGFRRLKELVYMRCLGNSWSSNCQCTSNSHDKSRKQVTAQLEHQKEQQTTTDMQKPTQSMHQENLTGHCREPPPWKHEDSKRIYHFVEGQSVHYECIPGYKALQRGPAISICKMKCGKTGWTQPQLTCVDEREHHRFLASEESQGSRNSSPESETSCPITTTDFPQPTETTAMTETFVLTMEYKGGGSGGGSGGGSSRGQYSREDNNCTHFPVGQSHMLLELRTAFSQVKTFFQTKDQLDNILLTDSLMQDFKGYLGCQALSEMIQFYLVEVMPQAEKHGPEIKEHLNSLGEKLKTLRMRLRRCHRFLPCENKSKAVEQVKSDFNKLQDQGVYKAMNEFDIFINCIEAYMMIKMKSGGHHHHHH
notes: Under native conditions it is predominately a non-covalent dimer; also called mIL-2-10/CD25; mIL2-10/CD25
Regarding B1, the binding result is reported as “binds”.

These data come from patent publication US20250368707A1 (UNIVERSITY OF MIAMI, published 2025).
